Reference: FireProtDB (doi:10.1016/j.csbj.2015.03.010)

Conditions: Aspergillus aculeatus; pH 4.5; Thermal; DSC; sodium acetate buffer 50 mM; transition: 2; reversible: no; whole UniProt chain shown

B1: Arabinogalactan endo-beta-1,4-galactanase wild type, P48842 (protein)
chain: MFASLLLAALPLLTHAALTYRGADISSLLLLEDEGYSYKNLNGQTQALETILADAGINSIRQRVWVNPSDGSYDLDYNLELAKRVKAAGMSLYLDLHLSDTWADPSDQTTPSGWSTTDLGTLKWQLYNYTLEVCNTFAENDIDIEIISIGNEIRAGLLWPLGETSSYSNIGALLHSGAWGVKDSNLATTPKIMIHLDDGWSWDQQNYFYETVLATGELLSTDFDYFGVSYYPFYSASATLASLKTSLANLQSTYDKPVVVVETNWPVSCPNPAYAFPSDLSSIPFSVAGQQEFLEKLAAVVEATTDGLGVYYWEPAWIGNAGLGSSCADNLMVDYTTDEVYESIETLGEL
  Tm: 60.9 °C
